The numbers were not newly measured in PMC8834348, which cites them from elsewhere.

The target in data set [1] is flotillin 2 (Homo sapiens) (UniProt Q14254).
The target in data set [2] is flotillin 1 (Homo sapiens) (UniProt O75955).
Sequence of UniProt O75955 (O75955 whole entry): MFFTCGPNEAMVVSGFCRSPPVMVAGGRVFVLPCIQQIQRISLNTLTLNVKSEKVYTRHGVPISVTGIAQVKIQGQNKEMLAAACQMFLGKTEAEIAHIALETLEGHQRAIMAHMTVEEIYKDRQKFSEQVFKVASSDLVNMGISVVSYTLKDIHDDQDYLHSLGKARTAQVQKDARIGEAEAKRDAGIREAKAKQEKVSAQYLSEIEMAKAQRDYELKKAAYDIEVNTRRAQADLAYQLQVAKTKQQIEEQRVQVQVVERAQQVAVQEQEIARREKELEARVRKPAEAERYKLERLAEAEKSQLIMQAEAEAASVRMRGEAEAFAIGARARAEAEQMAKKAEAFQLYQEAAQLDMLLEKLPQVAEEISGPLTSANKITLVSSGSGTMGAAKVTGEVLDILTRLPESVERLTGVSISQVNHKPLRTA

Sequence of UniProt Q14254 (Q14254 2-428): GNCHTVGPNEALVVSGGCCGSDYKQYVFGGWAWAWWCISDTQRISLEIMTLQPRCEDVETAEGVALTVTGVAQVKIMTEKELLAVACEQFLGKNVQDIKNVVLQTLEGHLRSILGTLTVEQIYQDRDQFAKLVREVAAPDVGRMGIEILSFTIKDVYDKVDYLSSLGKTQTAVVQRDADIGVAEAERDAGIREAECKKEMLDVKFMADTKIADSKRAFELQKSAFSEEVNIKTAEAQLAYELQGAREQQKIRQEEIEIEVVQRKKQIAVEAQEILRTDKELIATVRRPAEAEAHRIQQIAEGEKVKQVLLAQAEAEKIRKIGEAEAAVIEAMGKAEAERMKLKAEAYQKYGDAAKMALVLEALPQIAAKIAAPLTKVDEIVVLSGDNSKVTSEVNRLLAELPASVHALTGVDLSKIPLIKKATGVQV

One may read the Kd as the equilibrium constant for the complex coming apart. Take MPP1 D5 domain (from UniProt Q00013): the dissociation constant Kd in data set [1] and in data set [2] was 30 nM each time.
